{
  "source": "patent US20130210709A1",
  "about": "(ANCHOR THERAPEUTICS, published 2013)",
  "target": "CXCR4 receptor (human, UniProt P61073 1-352)",
  "sequence (P61073 whole entry)": "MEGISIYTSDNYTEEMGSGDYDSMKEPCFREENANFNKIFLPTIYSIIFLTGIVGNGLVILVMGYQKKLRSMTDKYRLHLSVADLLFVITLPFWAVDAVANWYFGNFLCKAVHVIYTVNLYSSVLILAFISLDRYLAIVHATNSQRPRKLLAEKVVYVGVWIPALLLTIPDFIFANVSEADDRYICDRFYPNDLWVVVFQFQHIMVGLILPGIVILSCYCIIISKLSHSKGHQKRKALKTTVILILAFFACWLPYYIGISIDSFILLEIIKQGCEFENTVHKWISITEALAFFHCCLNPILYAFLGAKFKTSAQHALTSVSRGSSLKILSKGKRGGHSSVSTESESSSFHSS",
  "test": "cell-based or functional assay",
  "note": "Square brackets hold non-standard residues; d marks the D form. * marks the point of attachment. Palmitoyl = CCCCCCCCCCCCCCCC(=O)*",
  "data": [
    {"binder": "Palmitoyl-MGYAKKLRSMTDKYRL-NH2 (SMILES CCCCCCCCCCCCCCCC(=O)N[C@@H](CCSC)C(=O)NCC(=O)N[C@@H](Cc1ccc(O)cc1)C(=O)N[C@@H](C)C(=O)N[C@@H](CCCCN)C(=O)N[C@@H](CCCCN)C(=O)N[C@@H](CC(C)C)C(=O)N[C@@H](CCCNC(=N)N)C(=O)N[C@@H](CO)C(=O)N[C@@H](CCSC)C(=O)N[C@H](C(=O)N[C@@H](CC(=O)O)C(=O)N[C@@H](CCCCN)C(=O)N[C@@H](Cc1ccc(O)cc1)C(=O)N[C@@H](CCCNC(=N)N)C(=O)N[C@@H](CC(C)C)C(N)=O)[C@@H](C)O)", "note": "[CXCR4 i1 loop compound 132]", "values": [
      {"measurement": "IC50 (nM), calcium flux, CCRF-CEM", "result": 213, "unit": "nM"}
    ]},
    {"binder": "Palmitoyl-MGYQKKLRS[dM]TDKYRL-NH2", "note": "[CXCR4 i1 loop compound 173]", "values": [
      {"measurement": "IC50 (nM), calcium flux, CCRF-CEM", "result": 97, "unit": "nM"}
    ]},
    {"binder": "Palmitoyl-MGYQKKLRSM[dT]DKYRL-NH2", "note": "[CXCR4 i1 loop compound 164]", "values": [
      {"measurement": "IC50 (nM), calcium flux, CCRF-CEM", "result": 322, "unit": "nM"}
    ]},
    {"binder": "Palmitoyl-MGYQKKLRSMTD[dK]YRL-NH2", "note": "[CXCR4 i1 loop compound 162]", "values": [
      {"measurement": "IC50 (nM), calcium flux, CCRF-CEM", "result": 291, "unit": "nM"}
    ]},
    {"binder": "Palmitoyl-MGYQAKLRSMTDKYRL-NH2 (SMILES CCCCCCCCCCCCCCCC(=O)N[C@@H](CCSC)C(=O)NCC(=O)N[C@@H](Cc1ccc(O)cc1)C(=O)N[C@@H](CCC(N)=O)C(=O)N[C@@H](C)C(=O)N[C@@H](CCCCN)C(=O)N[C@@H](CC(C)C)C(=O)N[C@@H](CCCNC(=N)N)C(=O)N[C@@H](CO)C(=O)N[C@@H](CCSC)C(=O)N[C@H](C(=O)N[C@@H](CC(=O)O)C(=O)N[C@@H](CCCCN)C(=O)N[C@@H](Cc1ccc(O)cc1)C(=O)N[C@@H](CCCNC(=N)N)C(=O)N[C@@H](CC(C)C)C(N)=O)[C@@H](C)O)", "note": "[CXCR4 i1 loop compound 133]", "values": [
      {"measurement": "IC50 (nM), calcium flux, CCRF-CEM", "result": 200, "unit": "nM"}
    ]},
    {"binder": "Palmitoyl-MGYQKKARSMTDKYRL-NH2 (SMILES CCCCCCCCCCCCCCCC(=O)N[C@@H](CCSC)C(=O)NCC(=O)N[C@@H](Cc1ccc(O)cc1)C(=O)N[C@@H](CCC(N)=O)C(=O)N[C@@H](CCCCN)C(=O)N[C@@H](CCCCN)C(=O)N[C@@H](C)C(=O)N[C@@H](CCCNC(=N)N)C(=O)N[C@@H](CO)C(=O)N[C@@H](CCSC)C(=O)N[C@H](C(=O)N[C@@H](CC(=O)O)C(=O)N[C@@H](CCCCN)C(=O)N[C@@H](Cc1ccc(O)cc1)C(=O)N[C@@H](CCCNC(=N)N)C(=O)N[C@@H](CC(C)C)C(N)=O)[C@@H](C)O)", "note": "[CXCR4 i1 loop compound 135]", "values": [
      {"measurement": "IC50 (nM), calcium flux, CCRF-CEM", "result": 175, "unit": "nM"}
    ]},
    {"binder": "Palmitoyl-MGY[dQ]KKLRSMTDKYRL-NH2", "note": "[CXCR4 i1 loop compound 167]", "values": [
      {"measurement": "IC50 (nM), calcium flux, CCRF-CEM", "result": 116, "unit": "nM"}
    ]},
    {"binder": "Palmitoyl-[dM]GYQKKLRSMTDKYRL-NH2", "note": "[CXCR4 i1 loop compound 165]", "values": [
      {"measurement": "IC50 (nM), calcium flux, CCRF-CEM", "result": 112, "unit": "nM"}
    ]},
    {"binder": "Palmitoyl-MGYQKALRSMTDKYRL-NH2 (SMILES CCCCCCCCCCCCCCCC(=O)N[C@@H](CCSC)C(=O)NCC(=O)N[C@@H](Cc1ccc(O)cc1)C(=O)N[C@@H](CCC(N)=O)C(=O)N[C@@H](CCCCN)C(=O)N[C@@H](C)C(=O)N[C@@H](CC(C)C)C(=O)N[C@@H](CCCNC(=N)N)C(=O)N[C@@H](CO)C(=O)N[C@@H](CCSC)C(=O)N[C@H](C(=O)N[C@@H](CC(=O)O)C(=O)N[C@@H](CCCCN)C(=O)N[C@@H](Cc1ccc(O)cc1)C(=O)N[C@@H](CCCNC(=N)N)C(=O)N[C@@H](CC(C)C)C(N)=O)[C@@H](C)O)", "note": "[CXCR4 i1 loop compound 134]", "values": [
      {"measurement": "IC50 (nM), calcium flux, CCRF-CEM", "result": 250, "unit": "nM"}
    ]},
    {"binder": "Palmitoyl-MGYQKKLR[dS]MTDKYRL-NH2", "note": "[CXCR4 i1 loop compound 172]", "values": [
      {"measurement": "IC50 (nM), calcium flux, CCRF-CEM", "result": 90, "unit": "nM"}
    ]},
    {"binder": "Palmitoyl-MGYQK[dK]LRSMTDKYRL-NH2", "note": "[CXCR4 i1 loop compound 169]", "values": [
      {"measurement": "IC50 (nM), calcium flux, CCRF-CEM", "result": 88, "unit": "nM"}
    ]},
    {"binder": "Palmitoyl-MGYQKKLASMTDKYRL-NH2 (SMILES CCCCCCCCCCCCCCCC(=O)N[C@@H](CCSC)C(=O)NCC(=O)N[C@@H](Cc1ccc(O)cc1)C(=O)N[C@@H](CCC(N)=O)C(=O)N[C@@H](CCCCN)C(=O)N[C@@H](CCCCN)C(=O)N[C@@H](CC(C)C)C(=O)N[C@@H](C)C(=O)N[C@@H](CO)C(=O)N[C@@H](CCSC)C(=O)N[C@H](C(=O)N[C@@H](CC(=O)O)C(=O)N[C@@H](CCCCN)C(=O)N[C@@H](Cc1ccc(O)cc1)C(=O)N[C@@H](CCCNC(=N)N)C(=O)N[C@@H](CC(C)C)C(N)=O)[C@@H](C)O)", "note": "[CXCR4 i1 loop compound 136]", "values": [
      {"measurement": "IC50 (nM), calcium flux, CCRF-CEM", "result": 302, "unit": "nM"}
    ]},
    {"binder": "Palmitoyl-MG[dY]QKKLRSMTDKYRL-NH2", "note": "[CXCR4 i1 loop compound 166]", "values": [
      {"measurement": "IC50 (nM), calcium flux, CCRF-CEM", "result": 129, "unit": "nM"}
    ]},
    {"binder": "Palmitoyl-MGAQKKLRSMTDKYRL-NH2 (SMILES CCCCCCCCCCCCCCCC(=O)N[C@@H](CCSC)C(=O)NCC(=O)N[C@@H](C)C(=O)N[C@@H](CCC(N)=O)C(=O)N[C@@H](CCCCN)C(=O)N[C@@H](CCCCN)C(=O)N[C@@H](CC(C)C)C(=O)N[C@@H](CCCNC(=N)N)C(=O)N[C@@H](CO)C(=O)N[C@@H](CCSC)C(=O)N[C@H](C(=O)N[C@@H](CC(=O)O)C(=O)N[C@@H](CCCCN)C(=O)N[C@@H](Cc1ccc(O)cc1)C(=O)N[C@@H](CCCNC(=N)N)C(=O)N[C@@H](CC(C)C)C(N)=O)[C@@H](C)O)", "note": "[CXCR4 i1 loop compound 131]", "values": [
      {"measurement": "IC50 (nM), calcium flux, CCRF-CEM", "result": 147, "unit": "nM"}
    ]},
    {"binder": "Palmitoyl-MGYQ[dK]KLRSMTDKYRL-NH2", "note": "[CXCR4 i1 loop compound 168]", "values": [
      {"measurement": "IC50 (nM), calcium flux, CCRF-CEM", "result": 119, "unit": "nM"}
    ]},
    {"binder": "Palmitoyl-MGYQKKL[dR]SMTDKYRL-NH2", "note": "[CXCR4 i1 loop compound 171]", "values": [
      {"measurement": "IC50 (nM), calcium flux, CCRF-CEM", "result": 72, "unit": "nM"}
    ]},
    {"binder": "Palmitoyl-MGYQKK[dL]RSMTDKYRL-NH2", "note": "[CXCR4 i1 loop compound 170]", "values": [
      {"measurement": "IC50 (nM), calcium flux, CCRF-CEM", "result": 72, "unit": "nM"}
    ]},
    {"binder": "Palmitoyl-MGYQKKLRSMT[dD]KYRL-NH2", "note": "[CXCR4 i1 loop compound 163]", "values": [
      {"measurement": "IC50 (nM), calcium flux, CCRF-CEM", "result": 623, "unit": "nM"}
    ]},
    {"binder": "Palmitoyl-MAYQKKLRSMTDKYRL-NH2 (SMILES CCCCCCCCCCCCCCCC(=O)N[C@@H](CCSC)C(=O)N[C@@H](C)C(=O)N[C@@H](Cc1ccc(O)cc1)C(=O)N[C@@H](CCC(N)=O)C(=O)N[C@@H](CCCCN)C(=O)N[C@@H](CCCCN)C(=O)N[C@@H](CC(C)C)C(=O)N[C@@H](CCCNC(=N)N)C(=O)N[C@@H](CO)C(=O)N[C@@H](CCSC)C(=O)N[C@H](C(=O)N[C@@H](CC(=O)O)C(=O)N[C@@H](CCCCN)C(=O)N[C@@H](Cc1ccc(O)cc1)C(=O)N[C@@H](CCCNC(=N)N)C(=O)N[C@@H](CC(C)C)C(N)=O)[C@@H](C)O)", "note": "[CXCR4 i1 loop compound 130]", "values": [
      {"measurement": "IC50 (nM), calcium flux, CCRF-CEM", "result": 125, "unit": "nM"}
    ]}
  ]
}
